assay: soluble on expression in E. coli; label from the status in PepcDB or PDB records

Question: With “MGKLFGTDGVRGIVNKELTPELVLKLSKAIGTFFGKNSKILVGRDVRAGGDMLVKIVEGGLLSVGVEVYDGGMAPTPALQYAVKTLGYDGGVVITASHNPAPYNGIKVVDKDGIEIRREKENEIEDLFFTERFNTIEWSSLTTEVKREDRVISTYVNGILSHVDIEKIKKKNYKVLIDPANSVGALSTPLVARALGCKIYTINGNLDPLFSARQPEPTFDSLKETAEVVKTLKVDLGVAHDGDADRAIFIDSEGRVQWGDRSGTLLSYWASVKNPKAIKKIVTAVSSSSLVEEYLSKYNIQVDWTKVGSVDIAHKVADENALAGFEENGGFMYPPHQYVRDGAMSFALMLELLANENVSSAELFDRLPKYYLVKTKVDLKPGLMVEEIYKKILEVYSTSSVKAITIDGVKIIGKDFWFLVRKSGTEPIIRIMAEAKDENVANNLVNELKKIVEGK” as the sequence, how does the “soluble on expression in E. coli” value read?
Answer: soluble

Question: Which “soluble on expression in E. coli” value does the source give for “MGKLLTMAMPKGRIFEEAAGLLRQAGYRLPEEFEDSRKLIIDVPEENLRFILAKPMDVTTYVEHGVADVGIAGKDVMLEEERDVYEVLDLNISKCHLAVAGLPNTDWSGVAPRIATKYPNVASSYFREQGEQVEIIKLNGSIELAPLIGLADRIVDIVSTGQTLKENGLVETEHICDITSRFIVNPVSYRMKDDVIDEMASRLSLVVEGETAKLEHHHHHH” here?
Answer: soluble

Question: With “MGKLMEIIIISGRSGAGKSVALRALEDAGYYCVDNIPLDLLPQLTDILSQSQSSVAISLDIRNIPNSAHSLKQTLSTLQKHHQIKIIFLEADRATLIRRYSDSRRLHPLSLKDLSLEAAIDEEYRYLEPLIQHANLILDTTHLSTHSLAERLREFLRGNSEKELKIIVESFGFKYGIPLDADYVFDVRFLPNPHWDPTLRPMTGLEAPVAEFLNSHTEVNEFIYLTRHYIDTWLPMLEKNNRSYLTIAIGCTGGKHRSVYIAQQLGEYFQAKGKTVKIQHKSLERNKKI” as the sequence, how does the “soluble on expression in E. coli” value read?
Answer: not soluble

Question: Which “soluble on expression in E. coli” value does the source give for “MGKNRNKNKDKDPYIGPAKTGRNDSDSDDSESSAYTYNEDIQSIMGDVEDMNDVYDQLVDNLDRAQDKNSTTRIDGLHRVNLALTAKPAPEFINRNKETIMAVCSRMANKPDSEAQFLARLVGLVAVQAGEEISEMIAEPMSQMRTILMDASRCVFLRTACATSLAIVTRIACSEDEEVTANAKACRFAWAHTKVSGSANDIGHAKLTINDAVADQPKIVTLLSSNQLEVRLAAAETLAFLHEFMQDARPGFRFPNKEHVLSLLDQMVNDSSKKKTKKDKRAQRYAVRDIRAFIADEDDAPEVNVKIGQQTLSLDSCAIKIFYDTTCDLLHGGLAQQLLHNEVLRDVFDLGPIALEPAESANKQSRLAVHEAADKHRNQVRGKQRDKRSTVY” here?
Answer: not soluble

Question: For “MGLEVAADSVGSALAAQDGGAIRVELCGGLDGGGLTPSFGTLAVVRERLQIPLYVLIRPRVGDFVFDAAEVEVMRRDVEQCVRLGCDGVVLGALDPQGQVDLPAMRALIEAAGTLGVTFHRAIDVSADPARVLEDAITLGCERVLTSGARASALEGVETIAALVRQAGERISIMPGAGVSAANVQALRAGTGAREFHASARGPVAAQVHAPHPYITDLGGDYQRTDVARVRSIVQLLQTALEHHHHHH”, which “soluble on expression in E. coli” value is on record?
Answer: not soluble

Question: With “MGLLVLGTPLDWPESKKYCDYVRENGIMQFLHMYDTYISKKQDVLLWGDEIECIVVSMDDKSKKARVSLRQEDILNALGKYEETFRHVDFGPVYAALRNETCPKKIDAILSEVAKNPADYVERIGGNSNKDTIEITSSTKPHAQNAVPTFHPEYGRYMLESTPGAPYGSTLKDFTFVEYNMRLRRKIIENHLLPNELPLTITNFFRLGTPGFTDPEVEANGAISRSFFLPDDVINTHVRFPTLTANIRQRRGRKVAMNVPIFFDKNTIKPFHDPTVPWDRNLFPEDANARDGAALDNHIYMDSMGFGMGCCCLQITFQAKSCDEARLLYDQLTPITPLMLALSAGTPAFRGYLADQDCRWNVIAGAVDDRTEEEMKTVPKSRYDSVDLYISNDKRNLPEYNDVPVVINQDCYDKLIKDCIDERLAKHMAHIFSRDPLVIFSDSILQDNSVSNAHFENLNSTNWQSMRFKPPPPGSDIGWRVEFRSMEIQITDFENAAYSIFVVMLSRAILSFNLNLYMPISLVDENMKAAHARDAIHRKKFWFRCNPFPDASTDDESGQFRQLTIDELFNGEHRENGFPGLITIVRSYLYSCNPDAKTICLIERYIRLISQRANGQCLTAASWIRNFITTHPSYKQDSVVNDEINYDLIRRIAKIVDGDYDDTLLGKCS” as the sequence, how does the “soluble on expression in E. coli” value read?
Answer: soluble

Question: For “MGLMHPRQLLTLPNGDVLVVEANSPGTVPITSPKQMIASIVKDRSGKGGKGGNRITLLRKAAGQSGKWEKYVFIENLHSPFGVQLIGDTLYVANTGNIMKYRYTPGETRMSDPGVEFTDLPSTVNHHWTKALLASPDGKKLYVGVGSNSNVAENGLDIEYRRATVLEVDVQSAASRIYASGIRNPTGLGWEPTTGKLWAIVNERDEIGADLVPDYLTSVQEGGFYGWPYSYYGQYVDQRVQPQRPDLVARAIRPDYALGSHVAPLGLWFYQGRNLPEKYHGGAFIGQHGSWNRIPLSGYDVVFVRFKDGKPEGVPEPVVTGFTSADQKTLKGAPVGLAEDAEGALLIADDVGNTIWRVTARGLEHHHHHH”, which “soluble on expression in E. coli” value is on record?
Answer: not soluble

Question: Which “soluble on expression in E. coli” value does the source give for “MGLYAISDLHLAFNLDKPMNIFGEEWSKHDEKIKKNWISKISEEDTVLIAGDISWSMDIENGEEDLNWIDCLPGKKIICKGNHDYWWKSITKLNNMYKSISFLQNNFFEYKDYAICGTRGWIDKSFDSFDEHDKKVYKREIIRLRLSLDAAVKKGYSKFIVMFHYPPFKDENSGSEFTEVLEEYKVEKAIYGHLHGPALKNISGSIVKNGVEYMLTSCDYIEFNPIKIDLKLEHHHHHH” here?
Answer: soluble

Question: For “MGMENYNPPQEPWLVILYQDDHIMVVNKPSGLLSVPGRLEEHKDSVMTRIQRDYPQAESVHRLDMATSGVIVVALTKAAERELKRQFREREPKKQYVARVWGHPSPAEGLVDLPLICDWPNRPKQKVCYETGKPAQTEYEVVEYAADNTARVVLKPITGRSHQLRVHMLALGHPILGDRFYASPEARAMAPRLLLHAEMLTITHPAYGNSMTFKAPADFLEHHHHHH”, which “soluble on expression in E. coli” value is on record?
Answer: soluble

Question: For “MGMFERDTEIYLDRDALREDYQPENLVGRDTELNRYRAALQPVINGEQPNNIFLYGKTGVGKTAGTRYLIDHLEEDAAKYEDIDLTVKMLNCDGLSSSYQIATRLVNEFRDETSQISTTGYPRATVYDMLWTELDSCGGTIYIVLDEVDHIEDDSILYQLPRARANDNLSSAKIGIIGISNDFSFRDDLSPKVKSSLCEEEIQFPA”, which “soluble on expression in E. coli” value is on record?
Answer: not soluble

Question: For “MGMIIMVGDGMGPAYTSAYRYFQDNPDTEEIEQTVFDRLLVGMASTYPARESGYVTDSAASATALATGFKSYNGAIAVDINKRPLTTIMQMAKARGMSTGVAVTAQVNHATPAAFLTHNESRKNYEAIAADMLKSDADVILGGGRKYFSEALVSQFSAKGYQHITELAQLDSITQPKVLGLFAEVQLPWVIDDTDANTLSKLTQKSLDLLSQNEKGFVLLVEGSLIDWAGHNNDIATAMAEMQGFANAIEVVEQYIRQHPDTLLVVTADHNTGGLSIGANGEYQWDTKLPKGISASPASIATHAIAADDWQAGVNQQLGFDVNSTELQQLTNARMQGKSTLEVALKKIIDTRSYTGWTTSGHTGVDVQVFAMGPAADLFKGNQDNTHIAEKMMSLLPKVN”, which “soluble on expression in E. coli” value is on record?
Answer: soluble

Question: With “MGNGMTKVLPGLYLGNFIDAKDLDQLGRNKITHIISIHESPQPLLQDITYLRIPVADTPEVPIKKHFKECINFIHCCRLNGGNCLVHCFAGISRSTTIVTAYVMTVTGLGWRDVLEAIKATRPIANPNPGFRQQLEEFGWASSQKLRRQLEERFGESPFRDEEELRALLPLCKRCRQGSATSASSAGPHSAASEGTVQRLVPRTPREAHRPLPLLARVKQTFSCLPRCLSRKGGK” as the sequence, how does the “soluble on expression in E. coli” value read?
Answer: soluble

Question: For “MGNIKVTRDDWLNVAMDVLVSDGVEQVKVMNLAERMAVSRSSFYWYFKSRQDLLDALLAKWQATNTAGLIAQTELPAQTITGAVCNLFHCVVDPALFDTALDFAVRDWARRSGKVRRLLDLSDSRRLEALTAMFLRYDYSQIEAETRARVLYYMQIGYDLAQMNEPIDQRLSFVRHYLFVFTGVQARDEEVAAFSAFARGFWEGRRP”, which “soluble on expression in E. coli” value is on record?
Answer: not soluble

— the DeepSol protein solubility set
